According to the RNAGym collection of RNA variant scans (doi:10.1073/pnas.2313332121):
This sample holds only a part of the variants without activity.

B1: TPR 5TU (parent)
chain: GGAUCUUCUCGAUCUAACAAAAAAGACAAAUCUGCCACAAAGCUUGAGAGCAUCUUCGGAUGCAGAGGCGGCAGCCUUCGGUGGCGCGAUAGCGCCAACGUUCUCAACUAUGACACGCAAAACGCGUGCUCCGUUGAAUGGAGUUUAUCAUG

Variants of: B1
Experiment: polymerase ribozyme fitness, log enrichment relative to wild type (log ratio); higher = more active; in vitro selection for triplet polymerase activity
Outline: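 A heterodimeric triplet polymerase ribozyme had each of its subunits mutagenized by PCR into a library, which was transcribed. One round of in vitro selection, done in triplicate, annealed each library with a biotinylated primer, its partner subunit and triplets, then incubated it frozen at −7 °C before gel excision of extended constructs, streptavidin-bead capture and RT-PCR. Fitness is the logarithm of genotype enrichment relative to wild-type enrichment, based on Illumina sequencing of inputs and outputs and inverse-variance-weighted replicate averages. A base-2 logarithm is used, and genotypes were kept only with ≥10 input reads and ≥1 read per output.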

| Variant | polymerase ribozyme fitness (log ratio) |
| --- | --- |
| A29U G42U G84U C114A | ≤ -4.2 |
| A30G C75G C93U A121G | ≤ -4.2 |
| A30U C69G C79A C87G G126A G140C | ≤ -4.2 |
| A29U C35G G71C | ≤ -4.2 |
| A30C C43G U45A C87A C103A | ≤ -4.2 |
| A29U A49C G68U A73C A91C C103G | ≤ -4.2 |
| A29U U55A G62C C116G | ≤ -4.2 |
| A29U A37U C72G C95U C114U G143U | ≤ -4.2 |
| A30C C95G A119U C132U | ≤ -4.2 |
| A29U A40C G46A G67A G81A C85G A113C A137G | ≤ -4.2 |
| A29U U101G U104G | ≤ -4.2 |
| A30U U134C | -3.45 |
| A30U G42U A119G A138G | ≤ -4.2 |
| A30U C35U G84A | -4.19 |
| A30G C87A A91C A110U A115U U135C | ≤ -4.2 |
| A30G A60U C85A C95A C96A C125U A150C | ≤ -4.2 |
| A30G C32A C43A C93A C105A | ≤ -4.2 |
| A30C C57U G81C C87G A97U U109G G141A | ≤ -4.2 |
| A29U C114U A137G G141A U148C | ≤ -4.2 |
| A29U C93G | ≤ -4.2 |
| A29G C43A G48C C93G G126C | ≤ -4.2 |
| A30C G92A G100C | ≤ -4.2 |
| A30U C35U A52C C96U A107G C108G C114A | ≤ -4.2 |
| A29U A37C G80A G88C G133U | ≤ -4.2 |

| Variant | polymerase ribozyme fitness (log ratio) |
| --- | --- |
| A29C U55A C75A C85U G141C | ≤ -4.2 |
| A30U A40U C87G C103G G141A | -3.9 |
| A30G G74U C93A U102C U127G C129G U144G | ≤ -4.2 |
| A29G A30U C43U G50A G67U C79G G88U C99A G141A | ≤ -4.2 |
| A29U A37G C54U C87G C116A | ≤ -4.2 |
| A30G C79U G124U U135A | ≤ -4.2 |
| A30G G42A C96G G100A U139C U148C | ≤ -4.2 |
| A29U C54U G62A A113G U139G U148A | ≤ -4.2 |
| A29U A52G U55C U134A | ≤ -4.2 |
| A29G G50A G67U C75G C85A C123G C125G C132U A142C | ≤ -4.2 |
| A30G C85U G128A | ≤ -4.2 |
| A30U C87U | -3.22 |
| A30U U55G C63U A110U G126U | -4.07 |
| A29C U44A G59U C72U C131G | ≤ -4.2 |
| A30U C75G G84U C103G G124C | ≤ -4.2 |
| A29U U45A G94C C105A A113U U130G U135G | ≤ -4.2 |
| A29U A91U | ≤ -4.2 |
| A29G C35A U56C C69G G71U A91G A98U A138G | ≤ -4.2 |
| A30C C87G C99G C132A G140U | ≤ -4.2 |
| A29C U53A G84C C93U A121G C125G | ≤ -4.2 |
| A30G G50C C76U C103G | ≤ -4.2 |
| A30C C79U A91G C114U G136C | ≤ -4.2 |
| A30G A39U A52G U55G | -4.08 |
| A29U A39C A40U U45G U77G | ≤ -4.2 |

| Variant | polymerase ribozyme fitness (log ratio) |
| --- | --- |
| A30U A52G G67U C132U | ≤ -4.2 |
| A30C C87A | ≤ -4.2 |
| A30G G86A | -3.45 |
| A30C C75G U78G C95G | ≤ -4.2 |
| A30U C54A U55G G86C C105A A119G G136U A142U | ≤ -4.2 |
| A30C C35U G88U C116G | -3.99 |
| A29U U31A U56G A66G C96U C105A A138U | ≤ -4.2 |
| A30U G88C G92U C95A | ≤ -4.2 |
| A30G A66G C108G | ≤ -4.2 |
| A30C U31G U82A G92C C103A U134G | ≤ -4.2 |
| A30U G50C | ≤ -4.2 |
| A30C G42A C54U G58A U90G C93G C96U C125A U148A | ≤ -4.2 |
| A30U U45A G94U C131G | ≤ -4.2 |
| A29U A40U G68U C69U G92A G140C | ≤ -4.2 |
| A30G C76A C95A | ≤ -4.2 |
| A29U C95U | -3.54 |
| A29U C95A | -3.68 |
| A29U A40G | -4.2 |
| A29G C103G U104G | ≤ -4.2 |
| A29U A52C G68C C96U C99G A121U G126A A150U | ≤ -4.2 |
| A30G U44A A49U C87U G88A G92A A115U | ≤ -4.2 |
| A29U G48A U61G G84U C85A C105U G126U | ≤ -4.2 |
| A30C G92A U104A A106C C108A | ≤ -4.2 |
| A30C A41C C43U U53A C93U C125U A137G | ≤ -4.2 |

| Variant | polymerase ribozyme fitness (log ratio) |
| --- | --- |
| A30G C35G G59U A113C C131A | ≤ -4.2 |
| A30C G46U G94U G143A | ≤ -4.2 |
| A29U U31G C72U G83C | ≤ -4.2 |
| A29G C69U | ≤ -4.2 |
| A29U A47C U55G C87U A98G | ≤ -4.2 |
| A30C A39U U44A U53A C93A | ≤ -4.2 |
| A29U G50C A52C A64C U77C G92C G94A C95A A115C U139G | ≤ -4.2 |
| A30G A138G | ≤ -4.2 |
| A29U C38U G86A | ≤ -4.2 |
| A30C A91C A98U A119U | ≤ -4.2 |
| A30U G94C A150U | -3.55 |
| A29C U56A G80U A121G | ≤ -4.2 |
| A30G A49C G88U A110G | ≤ -4.2 |
| A30U C36A C85U G92A C96A | ≤ -4.2 |
| A30G A47G U56A G71C G117U A150U | ≤ -4.2 |
| A29C U55A C57U U90G A91C U148G | ≤ -4.2 |
| A30G G50U U55G U82A | ≤ -4.2 |
| A30C C35U G59A G88U G117A | ≤ -4.2 |
| A29G A73U A91G C99U A115U A137U | ≤ -4.2 |
| A30U U77G G84U C129G G152C | ≤ -4.2 |
| A30U A73U A98U U135G | ≤ -4.2 |
| A30U G46U U55G C79A U101G C108G C116U A119G G136U | ≤ -4.2 |
| A29U C54G U56G A60G | ≤ -4.2 |
| A29U G126A | ≤ -4.2 |

| Variant | polymerase ribozyme fitness (log ratio) |
| --- | --- |
| A30U G74A C93G C103A A106G A113U | ≤ -4.2 |
| A30C C87G U101C | ≤ -4.2 |
| A30C U55G C95A U135G U148A | -3.85 |
| A29U A64C C85G | ≤ -4.2 |
| A29G A60C A89G A110U G143A | ≤ -4.2 |
| A29G G46C A47C C132U U146A | -4.16 |
| A30G A49C C93G | ≤ -4.2 |
| A30U C51G A98U G136U | ≤ -4.2 |
| A29G A41C A47G C85G G92U U104G A137G G141U | ≤ -4.2 |
| A30U A49C G58A A119C G128U U134G | ≤ -4.2 |
| A30U A49G | ≤ -4.2 |
| A30G C85U | -3.06 |
| A29U G58U U61A U82A G86A A119G | ≤ -4.2 |
| A29U G46U G70U U90G C95U A115G G117U A120U | ≤ -4.2 |
| A30C U53A U78G G84U A137G | ≤ -4.2 |
| A30C A41C C57A G62C G92A C131G | ≤ -4.2 |
| A30U G70A | ≤ -4.2 |
| A30U G86U | ≤ -4.2 |
| A29G A52C C57U C93U | ≤ -4.2 |
| A30U U56A G59A G94U C125A U127A U144A | ≤ -4.2 |
| A30U C69U C85U A106G C123U A137G | ≤ -4.2 |
| A29C G84A | -4.17 |
| A30C C36G U77G C116U C125U G133C | ≤ -4.2 |
| A30U G58A C87U U90G U101A A110C G112A G126U | ≤ -4.2 |

| Variant | polymerase ribozyme fitness (log ratio) |
| --- | --- |
| A30U G94C A121G | -3.43 |
| A30U A52C U82A U101A G128A G136U G141C | ≤ -4.2 |
| A29U C36A A47C C118U U146C | ≤ -4.2 |
| A29U U44G A49C C103G G141C | ≤ -4.2 |
| A30G A52C U53C C93A G100C C132A | ≤ -4.2 |
| A29C U33A A41U G42A G83C C96U C108G | ≤ -4.2 |
| A30C A52C G83U G84C U135A G141C | ≤ -4.2 |
| A30G A41C | -3.51 |
| A29U G141C | -3.49 |
| A30U U101G | -3.89 |
| A29U G84A | ≤ -4.2 |
| A29G U55G G94A C108A A119G | ≤ -4.2 |
| A30C U111G C129U G136U | ≤ -4.2 |
| A29U U104C | -4.14 |
| A30G U33G U82C C103A U144A | ≤ -4.2 |
| A29U C103U | ≤ -4.2 |
| A30G C95G | -3.11 |
| A29U G92C U102C C116U | ≤ -4.2 |
| A29U G84U U135A | ≤ -4.2 |
| A29U U33A U102G A113U U144C | ≤ -4.2 |
| A30C C63U A66C A73U C85A A91C U109G | ≤ -4.2 |
| A30G C85U U134C | -3.93 |
| A30G C38A C57A G58C U78G A97G U101C U102G | ≤ -4.2 |
| A29U G59U C93U | ≤ -4.2 |

| Variant | polymerase ribozyme fitness (log ratio) |
| --- | --- |
| A29G G50A A52C U101G G133C | ≤ -4.2 |
| A29C U45A C95G | ≤ -4.2 |
| A29G C95G U127G | ≤ -4.2 |
| A29U U44A C85G G124A G152A | ≤ -4.2 |
| A30U G92U | -3.52 |
| A29U U53C | ≤ -4.2 |
| A29U U53A | -4.15 |
| A30C C96G | -4.03 |
| A30U U53A | -3.18 |
| A29G U56A U77C | ≤ -4.2 |
| A29U G71C C93U U109G G124C | ≤ -4.2 |
| A30C G46U C95G U102G | ≤ -4.2 |
| A30G G46C G50U C57U C118G | ≤ -4.2 |
| A29U C96U G136U | ≤ -4.2 |
| A30G A41U C69G C76U G94U U102G U130C | ≤ -4.2 |
| A30C A52G A106C U146C | ≤ -4.2 |
| A30G U82G A122G U146G | -4.18 |
| A29U G59A G140A | ≤ -4.2 |
| A30U U56G U82C G84U C95U | ≤ -4.2 |
| A29U C76A C87A C93A C129A | ≤ -4.2 |
| A29G U31C C36U C54G U82C G86C C93U | ≤ -4.2 |
| A30C C95G C108U C132G G133U | ≤ -4.2 |
| A29U A89U G94A C116G G141A | ≤ -4.2 |
